# Data taken from the Immune Epitope Database (IEDB).
# Columns and labels:
# HLA-A*24:03 = assay: IEDB peptide-MHC binding, purified MHC/direct/fluorescence; filed as Kd, often an IC50 or EC50 that approximates it; ≥ and ≤ were set here for values at or beyond the usual limits of such assays; settings: source organism: Listeria monocytogenes
# HLA-A*01:01 = assay: IEDB peptide-MHC binding, purified MHC/competitive/radioactivity; filed as Kd, often an IC50 or EC50 that approximates it; ≥ and ≤ were set here for values at or beyond the usual limits of such assays; settings: source organism: Dengue virus 4 Philippines/H241/1956
# HLA-A*26:01 = assay: as above; settings: source organism: Dengue virus 4 Philippines/H241/1956
# HLA-A*30:02 = assay: as above
# HLA-B*15:01 [1] = assay: as above
# HLA-B*07:02 = assay: as above
# HLA-B*35:01 = assay: as above
# HLA-B*51:01 [2] = assay: as above
# HLA-B*53:01 = assay: as above
# HLA-B*54:01 = assay: as above
# HLA-A*68:02 = assay: as above
# HLA-A*23:01 = assay: as above; settings: source organism: Dengue virus 2 Jamaica/1409/1983
# HLA-A*24:02 = assay: as above; settings: source organism: Dengue virus 2 Jamaica/1409/1983
# HLA-B*15:01 [3] = assay: IEDB peptide-MHC binding, purified MHC/competitive/fluorescence; filed as Kd, often an IC50 or EC50 that approximates it; ≥ and ≤ were set here for values at or beyond the usual limits of such assays; settings: source organism: Kurkino virus
# HLA-A*02:02 = assay: IEDB peptide-MHC binding, purified MHC/competitive/radioactivity; filed as Kd, often an IC50 or EC50 that approximates it; ≥ and ≤ were set here for values at or beyond the usual limits of such assays; settings: source organism: Homo sapiens
# HLA-A*03:01 = assay: as above
# HLA-A*11:01 = assay: as above; settings: source organism: Vaccinia virus WR
# HLA-A*31:01 = assay: as above
# HLA-A*33:01 = assay: as above
# HLA-A*68:01 = assay: as above; settings: source organism: Vaccinia virus WR
# HLA-B*51:01 [4] = assay: IEDB peptide-MHC binding, purified MHC/competitive/fluorescence; filed as Kd, often an IC50 or EC50 that approximates it; ≥ and ≤ were set here for values at or beyond the usual limits of such assays; settings: source organism: Yersinia pestis Nepal516
# HLA-B*08:01 = assay: IEDB peptide-MHC binding, purified MHC/competitive/radioactivity; filed as Kd, often an IC50 or EC50 that approximates it; ≥ and ≤ were set here for values at or beyond the usual limits of such assays; settings: source organism: Dengue virus 4 Philippines/H241/1956
# [5] = source organism: Dengue virus 4 Philippines/H241/1956
# [6] = source organism: Dengue virus 2 Jamaica/1409/1983
# [7] = source organism: Mammarenavirus choriomeningitidis
# [8] = source organism: Vaccinia virus WR
# [9] = source organism: Lymphocytic choriomeningitis virus (strain Armstrong)
# [10] = source organism: Mammarenavirus brazilense
sequence,measurement,setting,value
AFMRFDDQF,Kd,HLA-A*24:03,≤ 1 nM
ALITVSGLY,Kd,HLA-A*01:01,8110 nM
same,Kd,HLA-A*26:01,560 nM
same,Kd,HLA-A*30:02; [5],0.68 nM
same,Kd,HLA-B*15:01 [1]; [5],2.26 nM
ALLLLVAHY,Kd,HLA-A*30:02; [6],≥ 76900 nM
same,Kd,HLA-B*15:01 [1]; [6],50.6 nM
ALMVIGMAM,Kd,HLA-B*15:01 [1]; [5],2.62 nM
CPFLFLMLL,Kd,HLA-B*07:02; [7],≥ 77400 nM
same,Kd,HLA-B*35:01; [7],1420 nM
same,Kd,HLA-B*51:01 [2]; [7],≥ 45900 nM
same,Kd,HLA-B*53:01; [7],2100 nM
same,Kd,HLA-B*54:01; [7],142 nM
DPEKFNARMA,Kd,HLA-B*07:02; [8],≥ 53700 nM
same,Kd,HLA-B*35:01; [8],≥ 69900 nM
same,Kd,HLA-B*51:01 [2]; [8],≥ 40500 nM
same,Kd,HLA-B*53:01; [8],≥ 44700 nM
same,Kd,HLA-B*54:01; [8],1010 nM
DPQNAAVNV,Kd,HLA-B*07:02; [8],≥ 77500 nM
same,Kd,HLA-B*35:01; [8],≥ 77400 nM
same,Kd,HLA-B*51:01 [2]; [8],1250 nM
same,Kd,HLA-B*53:01; [8],≥ 36800 nM
same,Kd,HLA-B*54:01; [8],≥ 32200 nM
DTVTYKCPHI,Kd,HLA-A*68:02; source organism: Dengue virus 3 Martinique/1243/1999,89.7 nM
EIYTYFSHC,Kd,HLA-B*15:01 [1]; [8],933 nM
EPLSPDTCLL,Kd,HLA-B*07:02; [8],≥ 59700 nM
same,Kd,HLA-B*35:01; [8],281 nM
same,Kd,HLA-B*51:01 [2]; [8],≥ 69600 nM
same,Kd,HLA-B*53:01; [8],289 nM
same,Kd,HLA-B*54:01; [8],≥ 61300 nM
EPVVKDKIKL,Kd,HLA-B*07:02; [8],≥ 31500 nM
same,Kd,HLA-B*35:01; [8],≥ 69900 nM
same,Kd,HLA-B*51:01 [2]; [8],≥ 69600 nM
same,Kd,HLA-B*53:01; [8],≥ 54200 nM
same,Kd,HLA-B*54:01; [8],≥ 42700 nM
ESPARLASAI,Kd,HLA-A*26:01,4480 nM
same,Kd,HLA-A*68:02; [5],501 nM
ETNMITLLV,Kd,HLA-A*01:01,209 nM
same,Kd,HLA-A*26:01,338 nM
same,Kd,HLA-A*68:02; [5],7.24 nM
EVEDYGFGV,Kd,HLA-A*68:02; [6],7.04 nM
FAPSYSAEM,Kd,HLA-B*15:01 [1]; [8],454 nM
FMALVAFLRF,Kd,HLA-A*23:01,2510 nM
same,Kd,HLA-A*24:02,≥ 27900 nM
same,Kd,HLA-B*15:01 [1]; [6],229 nM
same,Kd,HLA-B*35:01; [6],69.7 nM
same,Kd,HLA-B*53:01; [6],1000 nM
FQTLTSCTF,Kd,HLA-B*15:01 [3],35.7 nM
HPIMYYTKF,Kd,HLA-B*07:02; [9],134 nM
same,Kd,HLA-B*35:01; [9],17.7 nM
same,Kd,HLA-B*51:01 [2]; [9],1600 nM
same,Kd,HLA-B*53:01; [9],14.5 nM
same,Kd,HLA-B*54:01; [9],3770 nM
IPGDILSII,Kd,HLA-B*07:02; [8],43.5 nM
same,Kd,HLA-B*35:01; [8],266 nM
same,Kd,HLA-B*51:01 [2]; [8],0.459 nM
same,Kd,HLA-B*53:01; [8],27.5 nM
same,Kd,HLA-B*54:01; [8],370 nM
KLREYEAAL,Kd,HLA-A*02:02,27.8 nM
same,Kd,HLA-A*68:02; source organism: Homo sapiens,≥ 27900 nM
LLHCVTESY,Kd,HLA-A*03:01; [8],3930 nM
same,Kd,HLA-A*11:01,8230 nM
same,Kd,HLA-A*31:01; [8],12500 nM
same,Kd,HLA-A*33:01; [8],≥ 26300 nM
same,Kd,HLA-A*68:01,12400 nM
same,Kd,HLA-B*15:01 [1]; [8],1.04 nM
LPDALLFTL,Kd,HLA-B*07:02; [10],201 nM
same,Kd,HLA-B*35:01; [10],13.3 nM
same,Kd,HLA-B*51:01 [2]; [10],3330 nM
same,Kd,HLA-B*53:01; [10],14.6 nM
same,Kd,HLA-B*54:01; [10],2890 nM
LPHIIDEVM,Kd,HLA-B*07:02; [7],154 nM
same,Kd,HLA-B*35:01; [7],15 nM
same,Kd,HLA-B*51:01 [2]; [7],9360 nM
same,Kd,HLA-B*53:01; [7],842 nM
same,Kd,HLA-B*54:01; [7],9010 nM
LPWLIFIQI,Kd,HLA-B*51:01 [4],1690 nM
LPYVGDTSMM,Kd,HLA-B*07:02; [8],828 nM
same,Kd,HLA-B*35:01; [8],816 nM
same,Kd,HLA-B*51:01 [2]; [8],3050 nM
same,Kd,HLA-B*53:01; [8],8530 nM
same,Kd,HLA-B*54:01; [8],≥ 69900 nM
LSRVFFCVY,Kd,HLA-B*15:01 [1]; [8],2.9 nM
LTASLVMLLV,Kd,HLA-A*68:02; source organism: Dengue virus 4 Dominica/814669/1981,30.3 nM
LTYQNKVVRV,Kd,HLA-A*68:02; [6],27.9 nM
MIIMDEAHF,Kd,HLA-B*15:01 [1]; source organism: Dengue virus 1 Brazil/97-11/1997,18.5 nM
MLLNRFTTR,Kd,HLA-A*03:01; [5],12 nM
same,Kd,HLA-A*31:01; [5],1.5 nM
same,Kd,HLA-A*33:01; [5],14.8 nM
same,Kd,HLA-B*08:01,2480 nM
